Data taken from the Human Domainome abundance scans (Beltran et al. 2025).
± gives the uncertainty stated by the source.

B1: Transcription intermediary factor 1-beta, residues 620 to 671; numbered along this chain, Q13263 (parent)
chain: TLDDSATICRVCQKPGDLVMCNQCEFCFHLDCHLPALQDVPGEEWSCSLCHV
B2: Tudor domain-containing protein 3, residues 554 to 611; numbered along this chain, Q9H7E2 (parent)
chain: KMWKPGDECFALYWEDNKFYRAEVEALHSSGMTAVVKFIDYGNYEEVLLSNIKPIQTE

Variants of: B1
Assay: abundance fitness (aPCA) (normalised: wild type 0, dead -1); higher = more abundant; growth selection in yeast, the domain comes from the species named
Conditions: Homo sapiens

Abundance fitness: each site, then its substitutions
D17: A -0.639 ± 0.19; H 0.01 ± 0.15; S -0.004 ± 0.098; T -0.074 ± 0.12; M -0.364 ± 0.21; C -0.151 ± 0.16; V -0.355 ± 0.11; K -0.018 ± 0.16; R -0.062 ± 0.098; L -0.301 ± 0.12; N -0.256 ± 0.2; G 0.076 ± 0.1; Y -0.512 ± 0.17; F -0.099 ± 0.21; Q -0.186 ± 0.2; W -0.522 ± 0.15; P -0.604 ± 0.15; E -0.119 ± 0.16; I -0.409 ± 0.24
T1: V -0.043 ± 0.27; N 0.184 ± 0.36; H -0.593 ± 0.34; D 0.178 ± 0.35; A 0.314 ± 0.28; M -0.363 ± 0.32; K 0.109 ± 0.24; R -0.495 ± 0.23; W -0.8 ± 0.33; G -0.602 ± 0.27; S -0.096 ± 0.17; E -0.11 ± 0.45
V11: M 0.059 ± 0.093; H -0.659 ± 0.22; D -0.484 ± 0.21; Y -0.515 ± 0.17; I -0.064 ± 0.11; E -0.072 ± 0.12; G -0.221 ± 0.1; W -0.409 ± 0.1; K -0.162 ± 0.11; L 0.009 ± 0.078; S -0.312 ± 0.084; A -0.131 ± 0.081; R -0.128 ± 0.088; Q -0.136 ± 0.12; P -0.779 ± 0.14; C -0.39 ± 0.12; N -0.142 ± 0.15
L2: P 0.179 ± 0.27; G -0.604 ± 0.16; M 0.021 ± 0.17; I -0.112 ± 0.19; K -0.056 ± 0.33; V -0.13 ± 0.1; H -0.678 ± 0.4; Q 0.016 ± 0.14; E 0.021 ± 0.17; N 0.017 ± 0.25; F -0.168 ± 0.15; W -0.323 ± 0.13; D -0.078 ± 0.17; Y 0.045 ± 0.17; R -0.252 ± 0.12; C -0.198 ± 0.18; S -0.004 ± 0.14
C12: Y -1 ± 0.26
Q13: R -0.025 ± 0.079; G -0.016 ± 0.075; P -0.82 ± 0.16; H 0.062 ± 0.15; E 0.092 ± 0.093; S 0.036 ± 0.088; L -0.084 ± 0.079; A -0.322 ± 0.082; T -0.085 ± 0.11; N 0.128 ± 0.17; M -0.002 ± 0.1; C 0.091 ± 0.13; V -0.518 ± 0.079; Y -0.111 ± 0.12; K -0.032 ± 0.13; I -0.265 ± 0.16; W -0.063 ± 0.1; F 0.042 ± 0.12; D 0.144 ± 0.12
A6: C -0.973 ± 0.21; E 0.25 ± 0.12; R -0.275 ± 0.11; H -0.303 ± 0.17; M -0.069 ± 0.19; L -0.202 ± 0.081; P -0.234 ± 0.16; S -0.223 ± 0.097; V -0.35 ± 0.08; Q -0.261 ± 0.13; W -0.86 ± 0.17; D -0.274 ± 0.22
S5: I -0.04 ± 0.17; M -0.267 ± 0.11; Q -0.215 ± 0.11; N -0.444 ± 0.36; D -0.267 ± 0.43; P -0.18 ± 0.14; R -0.064 ± 0.077; C -0.157 ± 0.23; L -0.596 ± 0.12; T -0.193 ± 0.13; W -0.307 ± 0.11; E -0.314 ± 0.1; F -0.227 ± 0.22; V -0.381 ± 0.093; G -0.308 ± 0.076; K -0.03 ± 0.12
I8: C 0.083 ± 0.12; K -0.107 ± 0.14; P -0.302 ± 0.13; Q 0.085 ± 0.15; M 0.056 ± 0.11; E -0.065 ± 0.11; G -0.418 ± 0.078; V -0.095 ± 0.081; N -0.045 ± 0.17; W -0.348 ± 0.11; F 0.087 ± 0.22; H -0.123 ± 0.14; D -0.51 ± 0.13; Y 0.077 ± 0.12; A -0.099 ± 0.095; L 0.03 ± 0.092
G16: P -0.945 ± 0.28; M -0.553 ± 0.2; V -0.827 ± 0.15; Y -0.879 ± 0.41; F -0.524 ± 0.31; W -0.791 ± 0.13; C -1.11 ± 0.23; S -0.091 ± 0.14; H -0.214 ± 0.17; K -0.258 ± 0.32; T -0.754 ± 0.3; N 0.137 ± 0.26; I -0.534 ± 0.3; A -0.639 ± 0.15; L -0.432 ± 0.12; D 0.076 ± 0.29; R -0.389 ± 0.11; E -0.307 ± 0.19; Q -0.477 ± 0.23
K14: F -0.424 ± 0.3; N -0.408 ± 0.25; S -0.35 ± 0.26; L -0.513 ± 0.46
D4: P -0.155 ± 0.12; F -0.19 ± 0.15; Q -0.294 ± 0.17; H -0.035 ± 0.26; N 0.074 ± 0.11; S 0.016 ± 0.086; A -0.141 ± 0.1; V 0.148 ± 0.093; R 0.015 ± 0.072; M 0.083 ± 0.096; L 0.135 ± 0.081; C 0.201 ± 0.1; G -0.219 ± 0.082; K 0.284 ± 0.16
T7: R 0.077 ± 0.11; G -0.207 ± 0.08; D 0.024 ± 0.12; L -0.41 ± 0.12; I -0.013 ± 0.13; P -0.204 ± 0.19; Y 0.007 ± 0.15; A -0.123 ± 0.098; F -0.383 ± 0.12; E 0.004 ± 0.13; S -0.079 ± 0.09; K -0.022 ± 0.13; N -0.176 ± 0.15; Q -0.118 ± 0.27; V -0.066 ± 0.088; H -0.138 ± 0.14; W -0.429 ± 0.15; C -0.451 ± 0.16; M -0.143 ± 0.15
R10: C -0.363 ± 0.16; T -0.037 ± 0.13; E -0.476 ± 0.17; I -0.866 ± 0.28; V -0.143 ± 0.098; M -0.113 ± 0.13; G -0.291 ± 0.1; W -0.574 ± 0.14; D -0.108 ± 0.17; Y -0.257 ± 0.22; N 0.094 ± 0.18; P -0.301 ± 0.13; Q -0.296 ± 0.13; A -0.327 ± 0.12; F -0.271 ± 0.16; K 0.206 ± 0.15; S 0.161 ± 0.13; H 0.136 ± 0.2
P15: T -0.546 ± 0.17; C -0.646 ± 0.15; N -0.396 ± 0.25; H -0.132 ± 0.22; F -0.787 ± 0.27; Q -0.559 ± 0.21; S -0.022 ± 0.1; A 0.005 ± 0.11; E -0.01 ± 0.14; G -0.126 ± 0.09; M -0.168 ± 0.24; L -0.684 ± 0.15; Y -0.255 ± 0.2; D -0.233 ± 0.2; W -0.771 ± 0.18; I -0.359 ± 0.32; K -0.193 ± 0.2
D3: M -0.529 ± 0.16; R -0.294 ± 0.096; I -0.292 ± 0.2; Q -0.603 ± 0.18; V -0.487 ± 0.1; L -0.242 ± 0.11; H -0.205 ± 0.15; F 0.053 ± 0.12; W -0.302 ± 0.12; C -0.534 ± 0.17; K 0.027 ± 0.2; E 0.13 ± 0.13; S -0.223 ± 0.11; T -0.661 ± 0.15; A -0.723 ± 0.14; G -0.411 ± 0.099; N -0.112 ± 0.14
L18: A -0.559 ± 0.13; H -0.664 ± 0.4; F -0.697 ± 0.25; E -0.374 ± 0.14; G -0.642 ± 0.12; C -0.317 ± 0.15
C9: V -0.902 ± 0.14; Q -1.12 ± 0.48; P -0.324 ± 0.11; A -0.861 ± 0.15; K -0.802 ± 0.42; G -0.931 ± 0.11; R -1.18 ± 0.2; Y -1 ± 0.21; N -0.469 ± 0.23; M -0.706 ± 0.32; S -0.848 ± 0.14; I -0.955 ± 0.3; T -0.926 ± 0.23; W -0.905 ± 0.22

Variants of: B2
Assay: as above
Conditions: Homo sapiens

Abundance fitness, by site and new letter:
I55: C -0.041 ± 0.074; G -0.351 ± 0.051; S -0.192 ± 0.067; P -0.084 ± 0.11; F -0.1 ± 0.13; E -0.558 ± 0.099; N -0.265 ± 0.12; M -0.096 ± 0.095; W -0.372 ± 0.078; K -0.139 ± 0.089; A -0.028 ± 0.079; R -0.068 ± 0.055; D -0.415 ± 0.1; Y -0.132 ± 0.11; T -0.18 ± 0.097; V -0.039 ± 0.063
P54: Y -0.565 ± 0.14; Q -0.188 ± 0.097; T -0.125 ± 0.093; K -0.138 ± 0.11; L -0.36 ± 0.065; N -0.41 ± 0.13; W -0.767 ± 0.085; V -0.298 ± 0.077; S -0.158 ± 0.063; R -0.17 ± 0.054; I -0.5 ± 0.12
T57: I -0.036 ± 0.11; S 0.021 ± 0.063; A 0.041 ± 0.065; C -0.005 ± 0.085; K -0.047 ± 0.16; V 0.04 ± 0.063; G 0.029 ± 0.055; Y -0.072 ± 0.11; D 0.083 ± 0.074; N 0.019 ± 0.11; W -0.272 ± 0.096; H 0.06 ± 0.12; F -0.123 ± 0.1; Q 0.02 ± 0.14; R -0.047 ± 0.059; E 0.114 ± 0.092
Q56: K -0.065 ± 0.096; I -0.038 ± 0.092; L -0.07 ± 0.057; V -0.02 ± 0.06; R -0.078 ± 0.054; E 0.113 ± 0.081; D -0.061 ± 0.093; G 0.031 ± 0.056; W -0.189 ± 0.077; S -0.054 ± 0.064; P 0.015 ± 0.074; T -0.003 ± 0.087; F -0.071 ± 0.11; M -0.037 ± 0.097; C 0.008 ± 0.082; H 0.041 ± 0.086
E58: L -0.183 ± 0.12; R -0.111 ± 0.12; M -0.175 ± 0.14; G -0.042 ± 0.082; Q -0.252 ± 0.29; T -0.037 ± 0.23; H -0.304 ± 0.12; V -0.136 ± 0.084; S 0.113 ± 0.11; C -0.062 ± 0.16; W -0.068 ± 0.24; D -0.058 ± 0.081; I -0.187 ± 0.23; A -0.133 ± 0.085; K -0.024 ± 0.2; F -0.314 ± 0.24; Y -0.157 ± 0.25; N 0.049 ± 0.29
